Experimental data taken from article PMC9367177.
pKd: −log10 of the molar value.

Target: CC12.1 (human)
Assay: SPR

CC12.1 (human), sequence (heavy, as listed by the source, chain 1 of 2): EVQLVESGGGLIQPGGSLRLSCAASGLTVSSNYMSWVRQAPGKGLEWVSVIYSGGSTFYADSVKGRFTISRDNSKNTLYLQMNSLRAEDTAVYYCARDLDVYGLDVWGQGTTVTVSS
CC12.1 (human), sequence (light, as listed by the source, chain 2 of 2): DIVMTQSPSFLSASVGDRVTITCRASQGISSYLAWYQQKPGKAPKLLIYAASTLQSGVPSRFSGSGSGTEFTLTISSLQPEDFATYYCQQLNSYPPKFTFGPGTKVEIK

## SARS-CoV-2 RBD Alpha (B.1.1.7) (from UniProt P0DTC2) (domain or fragment)
  pKd: 7.84
